Laboratory results from paper PMC13384500, “RNA selectively modulates activity of virulent amyloid PSMα3 and host-defense LL-37 via phase separation and aggregation dynamics”.

T1: PSMα3 (Staphylococcus aureus, UniProt P0C805)
T1 chain: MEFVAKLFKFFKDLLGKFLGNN


Columns and labels:
[1] = target: T1, PSMα3; assay: EMSA; apparent Kd, Hill fit with n > 1; 40 nM RNA; settings: tags: none (unlabeled)
[2] = target: T1, PSMα3; assay: EMSA; apparent Kd, Hill fit with n > 1; 40 nM RNA; weaker than Poly(AU); settings: tags: none (unlabeled)

Row | Binder | Kd [1] [µM] | Kd [2] [µM]
1 | Poly(AU) RNA (30-nt oligoA/oligoU) (dsRNA) RNA 1: AAAAAAAAAAAAAAAAAAAAAAAAAAAAAA RNA 2: UUUUUUUUUUUUUUUUUUUUUUUUUUUUUU | 61.8 ± 1.6 | 
2 | AAAAAAAAAAAAAAAAAAAAAAAAAAAAAA (ssRNA) [Poly(A) RNA (30-nt oligoA)] |  | 94.5 ± 5.4
